This passage reports FcRn binding results from US20110123440A1.

The experiment concerns the target human FcRn (soluble recombinant, 6XHis, co-expressed with beta2 microglobulin) (human). Put plainly: luminex binding assay, pH 6.

human FcRn (soluble recombinant, 6XHis, co-expressed with beta2 microglobulin) (human), sequence (P55899 other isoform, or with tags, fused parts or gaps): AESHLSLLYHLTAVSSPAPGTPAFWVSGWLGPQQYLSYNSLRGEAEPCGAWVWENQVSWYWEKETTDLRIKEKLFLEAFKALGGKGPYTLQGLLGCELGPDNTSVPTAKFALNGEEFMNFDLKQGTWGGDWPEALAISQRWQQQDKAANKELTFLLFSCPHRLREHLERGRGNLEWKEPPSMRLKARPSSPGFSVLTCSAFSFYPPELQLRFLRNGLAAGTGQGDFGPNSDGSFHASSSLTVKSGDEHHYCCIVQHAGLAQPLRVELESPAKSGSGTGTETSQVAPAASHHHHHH

Regarding “anti-CD30 antibody (5F11) Fc variant A378P”, the FcRn binding at pH 6 (fold difference vs wild type anti-CD30) (fold vs wild type) turned out to be 0.6. For the substance “anti-CD30 antibody (5F11) Fc variant D376T”, the FcRn binding at pH 6 (fold difference vs wild type anti-CD30) (fold vs wild type) came out at 1.6. In the case of “anti-CD30 antibody (5F11) Fc variant E345W” it was 1.3; in that of “anti-CD30 antibody (5F11) Fc variant E356K”, 1.4; in that of “anti-CD30 antibody (5F11) Fc variant F404W”, 1.7. To “anti-CD30 antibody (5F11) Fc variant G446W” belongs 1.1; to “anti-CD30 antibody (5F11) Fc variant P247I”, 1.1.

Take “anti-CD30 antibody (5F11) Fc variant P396I”: the FcRn binding at pH 6 (fold difference vs wild type anti-CD30) (fold vs wild type) is 1.4.

Regarding “anti-CD30 antibody (5F11) Fc variant S254W”, the FcRn binding at pH 6 (fold difference vs wild type anti-CD30) (fold vs wild type) is 0.2. With “anti-CD30 antibody (5F11) Fc variant S354R”, the FcRn binding at pH 6 (fold difference vs wild type anti-CD30) (fold vs wild type) was determined as 1.3. To “anti-CD30 antibody (5F11) Fc variant S426W” belongs 0.6.
